Results as given in patent US20260347475 (published 2026).
Positions count from the first letter of the chain named.

B1: P-1150 (antibody, V domains shown)
VH: QVQLVQSGVEVKKPGASVKVSCKASGYTFTNYYMYWVRQAPGQGLEWMGGINPSNGGTNFAQKFQGRVTLTTDSSTTTAYMELKSLQFDDTAVYYCARRDYRFDMGFDYWGQGTTVTVSS
VL: EIVLTQSPATLSLSPGERATLSCRASQGVSTSGYSYLAWYQQKPGQAPRLLIYLASYRASGVPARFSGSGSGTDFTLTISSLEPEDFAVYYCQHSRDLPLTFGGGTKVEIKR
B2: P-1151 (antibody, V domains shown)
VH: B1 VH with F60Y
VL: B1 VL with A38H
B3: P-1153 (antibody, V domains shown)
VH: B1 VH with F60Y
VL: B1 VL
B4: P-1148 (antibody, V domains shown)
VH: B1 VH
VL: B1 VL with A38H

Molecular target: human PD1 (human, UniProt Q15116)
Assay: ELISA

Sequence of human PD1 (Q15116 25-167): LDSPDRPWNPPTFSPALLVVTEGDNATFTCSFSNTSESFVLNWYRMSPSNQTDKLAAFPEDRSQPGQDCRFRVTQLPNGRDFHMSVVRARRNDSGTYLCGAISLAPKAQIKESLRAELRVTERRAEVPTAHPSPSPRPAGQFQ

| Binder | EC50 [nM] |
| --- | --- |
| B1 | 0.088 |
| B2 | 0.065 |
| B3 | 0.11 |
| B4 | 0.093 |
